Tests used:
[1] = molecular target: denatured SHaPrP 27-30 (Syrian hamster) (UniProt P04273); test: ELISA on denatured PrP 27-30 (FIG. 10)
[2] = molecular target: non-denatured SHaPrP 27-30 (Syrian hamster) (UniProt P04273); test: ELISA on non-denatured PrP 27-30 (FIG. 9)
[3] = molecular target: non-denatured SHaPrP 27-30 (Syrian hamster) (UniProt P04273); test: estimated from immunoprecipitation (FIG. 12)

Question: How did the Ka [1] turn out when 3F4 Fab was run?
Answer: 1e+08 M⁻¹

Question: And the EC50 [2]?
Answer: 2 mg/L

Question: What about the Ka [3] of the same substance?
Answer: < 1e+07 M⁻¹
